Values joined by “and” are separate entries in the source; they are usually repeats but may differ in a detail not shown here. Equal values may be shown once.
B1: clone 6D9 (antibody, V domains shown)
VH: EVQLVESGGGLVQPGGSLRLSCAASGFTFTDYDMGWVRQAPGKGPEWVSLISGDSGNTWYDDSVKGRFTISRDNSKNTLYLQMNSLRAEDTAVYYCAKYRGTTKDYWGQGTLVTVSS
B2: clone 5E9 (antibody, V domains shown)
VH: EVQLVESGGGLVQPGGSLRLSCAASGFTFTTYDMGWVRQAPGKGPEWVSLISSGGSNTWYDDSVKGRFTISRDNSKNTLYLQMNSLRAEDTAVYYCAKEKYPYSDCDYWGQGTLVTVSS

Biological target: recombinant SARS (1-1190) (Beta Lifescience, BLIT-0210) (SARS-CoV), P59594
Conditions: remark: other sources report otherwise

Binder	O.D.
B1	0.389 O.D. and 0.386 O.D.
B2	0.294 O.D. and 0.278 O.D.
